From patent publication US12296006B2, “Anti-LY6H antibodies and antibody drug conjugates” (Bluefin BioMedicine, Inc., priority 2017, dated 2025)
Residue numbers refer to the chain shown, from its start.

B1: 12G7: human anti-LY6H antibody, VH SEQ ID NO: 22, VL SEQ ID NO: 26 (antibody, V domains shown)
VH: QVQLQQWGAGLLKPSETLSLTCAVYGGSFSGYYWSWIRQPPGKGLEWIGEINHSGSTYYNPSLKSRVTMSVDTSKNQFSLKLSSVTAADTAVYYCAKRWELGAFDIWGQGTMVTVSS
VL: DIQMTQSPSSLSASVGDRVTITCRASQGISNYLAWYQQKPGKVPKLLIYAASTLQSGVPSRFSGSGSGTDFTLTISSLQPEDVATYYCQKYNSAPRTFGQGTKLEIK
B2: 10B10: human anti-LY6H antibody, VH SEQ ID NO: 60, VL SEQ ID NO: 26 (antibody, V domains shown)
VH: QVQLQQWGAGLLKPSETLSLTCAVYGGSFSGYYWHWIRQPPGKGLEWIGEINHSESTKYNPSLKSRVTISVDTSKNQFSLKLSSVTGADTAVYYCARGQHIVVVTDSLGDYWGQGTLVTVSS
VL: B1 VL
B3: 6D11: human anti-LY6H antibody, VH SEQ ID NO: 1, VL SEQ ID NO: 5 (antibody, V domains shown)
VH: QVQLQQWGAGLFKPSETLSLTCAVYGGSFSGSLWSWIRQPPGKGLEWIGEINHSGSTNYTPSLKSRVTISVDTSKNQFSLKLTSVTAADTAVYYCARGRHIVVVTAIHSPFDYWGQGTLVTVSS
VL: B1 VL with Y49F

Assays:
H446 = test: Anti-Ly6H antibodies binding to endogenous cell lines by flow cytometry: H446; parameters: species or system human; key: (−): No binding; (+): Weak binding; (++): Moderate binding; (+++): Strong binding; (++++): Very strong binding; settings: primary antibodies 1 ug/ml, live cells on ice 30 minutes
Method: (§1) Staining for flow cytometry was performed in 1× cold PBS with 0.5% BSA. Primary antibodies (1 ug/ml) were incubated with live cells on ice for 30 minutes, after a brief wash, cells were incubated with Alexa Fluro® 488-conjugated anti-human IgG secondary antibody @1:1000 (709-546-149, Jackson ImmunoResearch). Acquisition of the data was performed on a MACSQuant© Flow Cytometers (Miltenyi Biotec) and analyzed with FlowJo software.
(§2) Fully human antibodies against LY6H were generated by hybridoma procedures. Briefly, H2L2 mice were immunized with either recombinant human Ly6H-ECD or BaF3 cells over-expressing LY6H and boosted with rabbit splenocytes expressing full length human LY6H or with ECD of LY6H recombinant protein. Splenocytes were fused with the mouse myeloma cell line X63-Ag8.653. Clones from H2L2 mice were identified by immunofluorescence (IF) based high content screening (HCS) on 293 cells overexpressing hLY6H, ratLy6H, and parental 293 cells not expressing LY6H, as well as endogenous small cell lung cancer (SCLC) cell line, H446. […] 270 hits were cryopreserved and stored in liquid nitrogen. Approximately 100 clones were selected for molecular cloning. Based on unique CDR3 sequences from the heavy chain variable domain, 10 antibodies from 8 families were chosen and confirmed by flow cytometry (MACSQuant® miltenybiotec.com) on the following cell lines. The small-cell-lung cancer cells (SCLC) included H446, DMS79, and H526 cells. The T-cell acute lymphoblastic leukemia (T-ALL) cancer cells included MOLT3 and KE-37 cells.

H69 = test: Anti-Ly6H antibodies binding to endogenous cell lines by flow cytometry: H69; parameters: species or system human; key: (−): No binding; (+): Weak binding; (++): Moderate binding; (+++): Strong binding; (++++): Very strong binding; settings: primary antibodies 1 ug/ml, live cells on ice 30 minutes
Method: as §1
as §2, with “The small-cell-lung cancer cells (SCLC) included H446, DMS79, and H526 cells. The T-cell acute lymphoblastic leukemia (T-ALL) cancer cells included MOLT3 and KE-37 cells.” left out

DMS79 = test: Anti-Ly6H antibodies binding to endogenous cell lines by flow cytometry: DMS79; parameters: species or system human; key: (−): No binding; (+): Weak binding; (++): Moderate binding; (+++): Strong binding; (++++): Very strong binding; settings: primary antibodies 1 ug/ml, live cells on ice 30 minutes
Method: as §1, §2

MOLT3 = test: Anti-Ly6H antibodies binding to endogenous cell lines by flow cytometry: MOLT3; parameters: species or system human; key: (−): No binding; (+): Weak binding; (++): Moderate binding; (+++): Strong binding; (++++): Very strong binding; settings: primary antibodies 1 ug/ml, live cells on ice 30 minutes
Method: as §1, §2

KE-37 = test: Anti-Ly6H antibodies binding to endogenous cell lines by flow cytometry: KE-37; parameters: species or system human; key: (−): No binding; (+): Weak binding; (++): Moderate binding; (+++): Strong binding; (++++): Very strong binding; settings: primary antibodies 1 ug/ml, live cells on ice 30 minutes
Method: as §1, §2

EOL1 = test: Anti-Ly6H antibodies binding to endogenous cell lines by flow cytometry: EOL1; parameters: species or system human; key: (−): No binding; (+): Weak binding; (++): Moderate binding; (+++): Strong binding; (++++): Very strong binding; settings: primary antibodies 1 ug/ml, live cells on ice 30 minutes
Method: as §1
as §2, with “The small-cell-lung cancer cells (SCLC) included H446, DMS79, and H526 cells. The T-cell acute lymphoblastic leukemia (T-ALL) cancer cells included MOLT3 and KE-37 cells.” left out

[1] = biological target: H446, DMS79, H526, and MOLT3; test: Measurement of antibody EC50 by flow cytometry; format: binding, human; settings: 100 nM to 0.1 nM antibody
Method: The assay uses 3-5 fold dilutions (from 100 nM to 0.1 nM) of antibody of a stock antibody concentration (100 nM) in binding buffer. Serial diluted antibodies were incubated with live cells on ice for 30 minutes, after a brief wash, cells were incubated with Alexa Fluro® 488-conjugated anti-human IgG secondary antibody @1:100, or 15 ug/ml (709-546-149, Jackson ImmunoResearch). Acquisition of the MFI (Median Fluorescent Intensity) was performed on a MACSQuant® Flow Cytometers (Miltenyi Biotec). EC50 was calculated using Dose-response EC50 shift by global fitting from GraphPad Prism.
EC50 or the concentration of antibody that gives half-maximal binding is determined by direct and saturable binding of an antibody dilution series to both target positive and negative cell lines. An estimate of affinity is interpreted from one-half the concentration at which antibody binding first achieves saturation. EC50 was measured in the following cell lines H446, DMS79, H526, and MOLT3 (FIG. 4). Though EC50 may not provide an accurate measure of affinity, it allows for ranking ordering of antibodies. 12G7, 11D9, 10B10, and 6D11 were ranked top, followed by 34H6, 1F8, and 2B11.

H446 cells = test: Internalization assay in H446 cells (LAMP1 co-staining); format: cell-based, human; settings: live H446 cells incubated with antibody at 37° C., fixed, permeablized, LAMP1 co-stain
Method: Live H446 cells were incubated with 12G7 for 2 hours, cells were then fixed, permeablized, and co-stained with LAMP1 antibody.
Live H446 cells were incubated with 12G7 antibody for 30 minutes at 37° C. After cytospin, cells were fixed with 4% PFA and permeablized with 100% methanol, and stained with LAMP1 antibody (#9091, Cell Signaling Technology, Inc.).

[2] = test system: LY6H positive SCLC and T cell acute lymphoblastic leukemia (T-ALL) cell lines; test: Flow cytometry binding of 12G7 to SCLC and T-ALL cell lines (FIG. 2); parameters: species or system human
Method: Dotted lines represent LY6H antibody.
as §1
as §2, with “Based on unique CDR3 sequences from the heavy chain variable domain, 10 antibodies from 8 families were chosen and confirmed by flow cytometry (MACSQuant® miltenybiotec.com) on the following cell lines. The small-cell-lung cancer cells (SCLC) included H446, DMS79, and H526 cells. The T-cell acute lymphoblastic leukemia (T-ALL) cancer cells included MOLT3 and KE-37 cells.” left out

Molecule | binding by flow cytometry, H446 (H446) | binding by flow cytometry, H69 (H69) | binding by flow cytometry, DMS79 (DMS79) | binding by flow cytometry, MOLT3 (MOLT3) | binding by flow cytometry, KE-37 (KE-37) | binding by flow cytometry, EOL1 (EOL1) | rank ordering of antibodies by EC50 (half-maximal binding) [1] | internalization / co-localization with LAMP1 (H446 cells) | binding to LY6H positive SCLC and T-ALL cell lines [2]
B1 | (++++) | (−) | (+++) | (+++) | (++++) | (−) | ranked top | internalization | binds
B2 | (++++) |  | (+++) | (+++) | (++++) |  | ranked top |  | 
B3 | (++++) |  | (+++) | (+++) | (++++) |  | ranked top |  | 
